Data taken from patent publication US20010034326A1 (UNIVERSITY OF NEW MEXICO, published 2001).
Read-outs that look alike come from different tables or passages of the source. Bridge positions count the residues as written; N and C are the ends. Ends that are not written are not given here.

Key:
[1] = molecular target: T1, ICAM-1 expressed on cells (JY cells; stimulated endothelial cells) (UniProt P05362 28-532, limits assumed); assay: cell-based or functional assay
[2] = molecular target: T1, ICAM-1 expressed on cells (JY cells; …); assay: cell-based or functional assay; remark: listed apart in the source
[3] = molecular target: T1, ICAM-1 expressed on cells (JY cells; …); assay: cell-based or functional assay; remark: listed apart in the source
[4] = molecular target: T1, ICAM-1 expressed on cells (JY cells; …); assay: cell-based or functional assay; remark: listed apart in the source
[5] = molecular target: T2, ICAM-1 (intracellular adhesion molecule 1), as used in the ELISA of monovalent ICAM-1 binding (human, UniProt P05362 28-480, limits assumed); assay: ELISA of monovalent ICAM-1 binding; for example inhibition of 84H10 binding to ICAM-1
T2 construct: also called purified ICAM-1
T2 sequence (P05362 28-480 limits assumed): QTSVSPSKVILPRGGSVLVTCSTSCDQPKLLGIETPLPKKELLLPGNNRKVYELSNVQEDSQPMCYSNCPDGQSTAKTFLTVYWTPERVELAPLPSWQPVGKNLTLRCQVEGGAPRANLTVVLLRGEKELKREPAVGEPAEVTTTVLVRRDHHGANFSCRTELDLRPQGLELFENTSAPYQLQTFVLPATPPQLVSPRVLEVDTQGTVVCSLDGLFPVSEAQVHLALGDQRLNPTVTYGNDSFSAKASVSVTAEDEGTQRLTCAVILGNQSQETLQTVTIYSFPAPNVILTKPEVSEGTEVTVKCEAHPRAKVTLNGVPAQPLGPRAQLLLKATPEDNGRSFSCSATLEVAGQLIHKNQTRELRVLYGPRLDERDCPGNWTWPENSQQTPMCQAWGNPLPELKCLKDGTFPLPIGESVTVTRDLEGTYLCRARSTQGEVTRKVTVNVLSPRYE

T1 sequence (P05362 28-532 limits assumed): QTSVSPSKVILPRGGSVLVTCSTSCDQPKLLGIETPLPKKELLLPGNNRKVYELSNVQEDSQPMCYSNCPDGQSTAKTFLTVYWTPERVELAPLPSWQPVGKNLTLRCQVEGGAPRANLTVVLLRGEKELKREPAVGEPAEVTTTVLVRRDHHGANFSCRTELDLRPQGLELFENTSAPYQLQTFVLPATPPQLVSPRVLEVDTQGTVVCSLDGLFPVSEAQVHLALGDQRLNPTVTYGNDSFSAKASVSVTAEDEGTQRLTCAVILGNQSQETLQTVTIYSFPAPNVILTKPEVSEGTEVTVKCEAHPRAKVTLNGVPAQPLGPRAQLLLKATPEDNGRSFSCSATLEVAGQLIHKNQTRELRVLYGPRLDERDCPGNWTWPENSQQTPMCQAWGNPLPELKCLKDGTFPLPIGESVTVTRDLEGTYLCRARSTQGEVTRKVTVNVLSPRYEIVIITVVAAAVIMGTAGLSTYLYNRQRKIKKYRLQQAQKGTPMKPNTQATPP

| Binder | Percent Inhibition [2] [percent] | Percent JY Aggregation [2] [percent] | Percent Inhibition [3] [percent] | Percent JY Aggregation [3] [percent] | other results |
| --- | --- | --- | --- | --- | --- |
| CLLRMRSIC (disulfide 1-9, Synthesized by Biopeptide; consensus derived from phage display on ICAM-1) [consensus peptide CLLRMRSIC (SEQ ID NO: 1), cyclized in the disulfide-linked form] | 46 | 41 | 45 | 30 | IC50, inhibition of JY cell aggregation [1]: 500 µM; IC50 for cell aggregation [1]: 800 µM; Cells/mm^2, firm attachment of neutrophils to stimulated endothelial cells in a parallel plate flow chamber [4]: 439 cells/mm^2; Percent Inhibition of firm attachment of neutrophils to stimulated endothelial cells [4]: 47 percent; IC50 [5]: 0.25 µM |
| CALRMRSIC (disulfide 1-9) [CALRMRSIC (SEQ ID NO: 34), cyclic disulfide-linked peptide] | 7 | 71 | – | – | – |
| CLARMRSIC (disulfide 1-9) [CLARMRSIC (SEQ ID NO: 35), cyclic disulfide-linked peptide] | 9 | 69 | – | – | – |
| CLLRARSIC (disulfide 1-9) [CLLRARSIC (SEQ ID NO: 37), cyclic disulfide-linked peptide] | 5 | 72 | – | – | – |
| CLLRMASIC (disulfide 1-9) [CLLRMASIC (SEQ ID NO: 38), cyclic disulfide-linked peptide] | 11 | 68 | – | – | – |
| CLLRMRAIC (disulfide 1-9) [CLLRMRAIC (SEQ ID NO: 39), cyclic disulfide-linked peptide] | 27 | 56 | – | – | – |
| CLLRMRSAC (disulfide 1-9) [CLLRMRSAC (SEQ ID NO: 40), cyclic disulfide-linked peptide] | 61 | 29 | – | – | – |
| CLRLSRIMC (disulfide 1-9) [randomized cyclic peptide CLRLSRIMC (SEQ ID NO: 56)] | 4 | 74 | -3.6 | 57 | Cells/mm^2, firm attachment of neutrophils to stimulated endothelial cells in a parallel plate flow chamber [4]: 617 cells/mm^2; Percent Inhibition of firm attachment of neutrophils to stimulated endothelial cells [4]: 25 percent |
| CLVRMRSAC (disulfide 1-9) [CLVRMRSAC (SEQ ID NO: 41), cyclic disulfide-linked peptide] | – | – | 0 | 55 | – |
| CVLRMRSAC (disulfide 1-9) [CVLRMRSAC (SEQ ID NO: 42), cyclic disulfide-linked peptide] | – | – | 56 | 24 | – |
| CILRMRSAC (disulfide 1-9) [CILRMRSAC (SEQ ID NO: 43), cyclic disulfide-linked peptide] | – | – | 92 | 4 | – |
| CLIRMRSAC (disulfide 1-9) [CLIRMRSAC (SEQ ID NO: 44), cyclic disulfide-linked peptide] | – | – | 93 | 4 | – |
| CLLKMRSAC (disulfide 1-9) [CLLKMRSAC (SEQ ID NO: 45), cyclic disulfide-linked peptide] | – | – | 94 | 3 | – |
| CLLRMKSAC (disulfide 1-9) [CLLRMKSAC (SEQ ID NO: 46), cyclic disulfide-linked peptide] | – | – | 90 | 6 | Cells/mm^2, firm attachment of neutrophils to stimulated endothelial cells in a parallel plate flow chamber [4]: 283 cells/mm^2; Percent Inhibition of firm attachment of neutrophils to stimulated endothelial cells [4]: 66 percent |
| CLLRMRSLC (disulfide 1-9) [CLLRMRSLC (SEQ ID NO: 47), cyclic disulfide-linked peptide] | – | – | -12 | 61 | – |
| CLLRMRSVC (disulfide 1-9) [CLLRMRSVC (SEQ ID NO: 48), cyclic disulfide-linked peptide] | – | – | 92 | 4 | – |
